Test results taken from PMC9982069 (PNAS Nexus, 2023).
Values joined by “and” are separate entries in the source; they are usually repeats but may differ in a detail not shown here. Equal entries are not always repeated.

B1: M protein of Pipistrellus bat coronavirus HKU5 (batCOV5-M), wild type (natural protein)
chain: MASSNVTLSNDEVLRLVKDWNFTWSVVFLLITIVLQYGYPSRSMFVYVIKMFVLWLLWPASMALSIFCAVYPIDLASQIISGILAATSCAMWISYFVQSIRLFMRTGSWWSFNPESNCLLNVPIGGTTVVRPLVEDSTSVTAVVTDGYLKMAGMHFGACDFQRLPSEVTVAKPNVLIALKMIKRQAYGTNSGVAIYHRYKAGNYRRPPIIQDQELALLRA
B2: batCOV5-M, M protein of Pipistrellus bat coronavirus HKU5, affinity- and SEC-purified (cross-linking, MST) (natural protein)
chain: B1 chain

Tests used:
cross-linking = target: the molecule itself; test: cross-linking
[1] = target: batCOV5-N3 [change] (residues 391-427 of batCOV5 N protein) fused to C-terminal GFP-His10 (Pipistrellus bat coronavirus HKU5); test: MST; conditions: both partners purified
[2] = target: batCOV5-N3 [change] (residues 391-427 of batCOV5 N protein) fused to C-terminal GFP-His10 (Pipistrellus bat coronavirus HKU5); test: MST; conditions: both partners purified; remark: listed apart in the source
[3] = target: batCOV5-N3 [change] (residues 391-427 of batCOV5 N protein) fused to C-terminal GFP-His10 (Pipistrellus bat coronavirus HKU5); test: MST; conditions: both partners purified; remark: listed apart in the source
[4] = target: batCOV5-N3 [change] (residues 391-427 of batCOV5 N protein) fused to C-terminal GFP-His10 (Pipistrellus bat coronavirus HKU5); test: MST; conditions: both partners purified; remark: listed apart in the source
[5] = target: batCOV5-N3 (residues 391-427) with C-terminal GFP-His10 (MST) (Pipistrellus bat coronavirus HKU5, UniProt A3EXD7 391-427); test: MST; conditions: both partners purified

Binder | stoichiometry N (cross-linking) | Kd [1] [µM] | Kd [2] [µM] | Kd [3] [µM] | Kd [4] [µM] | Kd [5] [µM]
B1 | 4 and 6 | 4.83 | 3.5 | 3.07 | 1.9 | –
B2 | – | – | – | – | – | 0.77
